Assay results reported in the supplement of paper PMC7125110.
± gives the standard error. Variants at the floor of the assay were thinned out.

B1: glmS ribozyme (parent)
chain: AUAAAAGCGCCAGAACUACAGAAAUGUAGUUGACGAGGAGGAGGUUUAUCGAAUUUUCGGCGGAUGCCUCCAAA

How the values were obtained:
Conditions in all cases: with glucosamine-6-phosphate
[1] = variants of: B1; experiment: self-cleavage kobs at 160 uM GlcN6P; higher = faster cleavage; RNA array
Method in brief: (§1)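 Tiles of sequenced MiSeq chips were imaged over ~14 h at 37 °C. On them, barcoded ribozyme variants had been transcribed in situ by E. coli RNA polymerase and were tracked via a hybridised Cy3 probe while glucosamine-6-phosphate (40 μM to 10 mM) in HEPES/KCl/Mg(OAc)2 buffer flowed in. Per-tile medians, normalised to baseline and to non-cleaving reference variants, were fit to one- or two-exponential decays for kobs, and weighted Michaelis–Menten fits gave kcat and KM.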

[2] = variants of: B1; experiment: self-cleavage kobs at 640 uM GlcN6P; higher = faster cleavage; RNA array
Method in brief: as §1

[3] = variants of: B1; experiment: self-cleavage kobs at 2500 uM GlcN6P; higher = faster cleavage; RNA array
Method in brief: as §1

[4] = variants of: B1; experiment: self-cleavage kobs at 10000 uM GlcN6P; higher = faster cleavage; RNA array
Method in brief: as §1

Variant	self-cleavage kobs at 160 uM GlcN6P [1] [s⁻¹]	self-cleavage kobs at 640 uM GlcN6P [2] [s⁻¹]	self-cleavage kobs at 2500 uM GlcN6P [3] [s⁻¹]	self-cleavage kobs at 10000 uM GlcN6P [4] [s⁻¹]
C11A A12U	7.68e-05 ± 1.8e-05	0.000339 ± 6e-05	0.000539 ± 7.7e-05	0.00156 ± 0.00028
C11A G41U C58U	< 1e-05	< 1e-05		
A12G A15G G29A G32C G37U	< 1e-05			
G13C A53U G59A C71U	< 1e-05		< 1e-05	
C10G G32A A33G C61A G63A	0.00144 ± 0.00069			
G13C U46C	< 1e-05	< 1e-05		
C10U U30C G43U G51U U55C U69C	< 1e-05	< 1e-05	< 1e-05	< 1e-05
A12C U49A C50A	< 1e-05		< 1e-05	
A12G G40U A53G C67U	< 1e-05	< 1e-05		
C11G G29A G37U	< 1e-05	< 1e-05		
G9U A33C	< 1e-05	< 1e-05	< 1e-05	< 1e-05
A12U C61A U69G	< 1e-05			
G9U C58G G63U	< 1e-05		< 1e-05	< 1e-05
C11U A14G A39G G60C	< 1e-05	< 1e-05		
C11G G32A G59C	< 1e-05	< 1e-05		
C11G G37C G40A U45A C70U	< 1e-05			
A12C A15G C50G U56G C67G	0.000121 ± 2.8e-05	0.000141 ± 3.7e-05	0.000133 ± 3.1e-05	4.37e-05 ± 1.2e-05
A14U C16A A33C	< 1e-05	< 1e-05		
C10U A12G G63U	< 1e-05		< 1e-05	
A15C A33C U55C	< 1e-05	< 1e-05	< 1e-05	
A15C G38C C70G	< 1e-05			
A15C C16G C50G A64C	0.000208 ± 6.7e-05	7.03e-05 ± 2.7e-05	5.92e-05 ± 1.8e-05	

Variant	self-cleavage kobs at 160 uM GlcN6P [1] [s⁻¹]	self-cleavage kobs at 640 uM GlcN6P [2] [s⁻¹]	self-cleavage kobs at 2500 uM GlcN6P [3] [s⁻¹]	self-cleavage kobs at 10000 uM GlcN6P [4] [s⁻¹]
A12U C34U	< 1e-05	< 1e-05		< 1e-05
C10G G43U C50A	< 1e-05		< 1e-05	
A14G A33C C70A	< 1e-05			
A12U A14C G40C A42U U45G	< 1e-05	< 1e-05		
C10A A14C G37C G44U C61U	< 1e-05			
G9U U31A C71U	< 1e-05	< 1e-05	< 1e-05	
C11A G38U G40U	< 1e-05			
A12G U56C G60A	< 1e-05	< 1e-05	< 1e-05	
C10G U55A	< 1e-05	< 1e-05		
C11U G13U U49G	< 1e-05	< 1e-05	< 1e-05	
C10U C34G	< 1e-05	< 1e-05	< 1e-05	< 1e-05
C10G G32U U54G C68A	5.61e-05 ± 2.2e-05			
A12C A15U U55G C67U	4.96e-05 ± 2.1e-05	0.0001 ± 2.8e-05	0.000447 ± 0.00013	
A12C G63C G66C	< 1e-05	< 1e-05		
G13C U45C U46C C68A C70G	< 1e-05		< 1e-05	
C10G A39U	< 1e-05	< 1e-05		
A15C U30G C34U G40A U55A	< 1e-05			
A15C C34A G44U	< 1e-05	< 1e-05	< 1e-05	
C10A C16A U47C U65C	< 1e-05	< 1e-05		
A14C A53U C67G	3.21e-05 ± 1.4e-05	0.000135 ± 2.7e-05	0.000238 ± 4.6e-05	
G13C A33C G41U U56C	< 1e-05		< 1e-05	
G13A C34U	< 1e-05	< 1e-05	< 1e-05	

Variant	self-cleavage kobs at 160 uM GlcN6P [1] [s⁻¹]	self-cleavage kobs at 640 uM GlcN6P [2] [s⁻¹]	self-cleavage kobs at 2500 uM GlcN6P [3] [s⁻¹]	self-cleavage kobs at 10000 uM GlcN6P [4] [s⁻¹]
A12U G44A U65G C67U	0.000241 ± 6.5e-05	0.000969 ± 0.00016	0.00188 ± 0.00037	
A14G A39G U69A	0.000285 ± 7.7e-05	0.000936 ± 0.00031	0.000786 ± 0.00024	
C11U A39U U49G	< 1e-05	< 1e-05	< 1e-05	
G9U U56C G62C	< 1e-05	< 1e-05		
C10U G60U C70G	< 1e-05	< 1e-05		
C11U G37C A39U U47G	< 1e-05			
A12C G59U	< 1e-05		< 1e-05	< 1e-05
A14U G35U A39G C50U	< 1e-05			
C11G A33U G44U U49A U65G	< 1e-05	< 1e-05	< 1e-05	
G9U A48U	< 1e-05		< 1e-05	< 1e-05
C11G C67U	< 1e-05	< 1e-05	< 1e-05	
A15G A33G	< 1e-05	< 1e-05		< 1e-05
C11U A33C A53U	< 1e-05	< 1e-05		
A12U G29A C68U	0.000209 ± 5.1e-05	0.000265 ± 6.4e-05	0.0017 ± 0.0004	0.00275 ± 0.0012
C10U C34U G38C A39U	< 1e-05			
A12U G35U U55G	< 1e-05			
C10G G35U	< 1e-05	< 1e-05	< 1e-05	
C10G G35C	< 1e-05	< 1e-05		< 1e-05
C11A G29A C34A U57C	< 1e-05	< 1e-05		
C11U U31C A39U A52C A64G	< 1e-05		< 1e-05	
A12C G35C	< 1e-05	< 1e-05	< 1e-05	
A12C G41C U49A	< 1e-05	< 1e-05	< 1e-05	

Variant	self-cleavage kobs at 160 uM GlcN6P [1] [s⁻¹]	self-cleavage kobs at 640 uM GlcN6P [2] [s⁻¹]	self-cleavage kobs at 2500 uM GlcN6P [3] [s⁻¹]	self-cleavage kobs at 10000 uM GlcN6P [4] [s⁻¹]
C11U A14G C70U	0.00076 ± 0.00021	0.000656 ± 0.00014	0.00193 ± 0.0006	
A14G A53C	0.00202 ± 0.00065	0.00488 ± 0.0012	0.01 ± 0.0023	0.0384 ± 0.016
C10A A33C G40C C70U	< 1e-05	< 1e-05		
A12U G60U C70G	< 1e-05			
A12U U30A U45A A53U G62C	< 1e-05		< 1e-05	
C10U G29U U57C C67U U69G	6.16e-05 ± 1.7e-05	8.17e-05 ± 1.9e-05	6.3e-05 ± 2e-05	
A14C G37A G43A C58U C68G	< 1e-05			
C11A C16U G44U A53G C71G	< 1e-05	< 1e-05		
A12U G35C	< 1e-05	< 1e-05		< 1e-05
C11G A39C A64U	< 1e-05	< 1e-05		
G13C G43C C70A	< 1e-05			
A12C A39U U46A C50G	< 1e-05	< 1e-05	< 1e-05	
G13U G51C U65G	< 1e-05	< 1e-05		
A12C C16U A53G U65G	9.62e-05 ± 2.4e-05	0.000453 ± 9.1e-05	0.000899 ± 0.00019	
A14U A15G U49A A53U	< 1e-05			< 1e-05
A14G G29C C61U C71U	< 1e-05	< 1e-05		< 1e-05
A12C G37A A52G	< 1e-05		5.63e-05 ± 1.7e-05	
C11U U46A U54G	< 1e-05		4.93e-05 ± 1.7e-05	
A14G G51U	< 1e-05			
G13U A33U U57C	< 1e-05	< 1e-05		
C10U G44A U57C G62A	< 1e-05	< 1e-05		
G9U G62A	< 1e-05	< 1e-05	< 1e-05	< 1e-05

Variant	self-cleavage kobs at 160 uM GlcN6P [1] [s⁻¹]	self-cleavage kobs at 640 uM GlcN6P [2] [s⁻¹]	self-cleavage kobs at 2500 uM GlcN6P [3] [s⁻¹]	self-cleavage kobs at 10000 uM GlcN6P [4] [s⁻¹]
A12G C34U G41A	< 1e-05	< 1e-05		
A12U U69C	0.000492 ± 0.00017	0.00151 ± 0.00069	0.00211 ± 0.00066	
A12G G59C G63C C67A	< 1e-05	< 1e-05	< 1e-05	
A14G U57A	4.7e-05 ± 1.1e-05	0.000139 ± 2.9e-05	0.000418 ± 4.7e-05	
G13C A14G G32A	0.000606 ± 0.00018	0.00264 ± 0.00054	0.00874 ± 0.0043	
C11A C50G C61U	0.000476 ± 0.00011	0.000601 ± 0.00018		
C10G A42G G44C A53G G60U	< 1e-05	< 1e-05		
A12G A36C G66C C68G	< 1e-05			
C11G A64U U65A	< 1e-05	< 1e-05	< 1e-05	
C11A A39U C61U C70G	< 1e-05	< 1e-05	< 1e-05	
C11U A15G C68U	4.79e-05 ± 2.4e-05	9.88e-05 ± 2.1e-05	0.000318 ± 8.7e-05	
C10U G62C	< 1e-05		< 1e-05	< 1e-05
A12C C16G C70U	0.000215 ± 8.1e-05	0.000259 ± 9.1e-05	0.00151 ± 0.00044	
C11A A42G G63A	< 1e-05	< 1e-05		
C10U U49G U56A	< 1e-05			
C11A G43C C61G	< 1e-05	< 1e-05	< 1e-05	
C10A C34U U55G	< 1e-05		< 1e-05	
A15C A33G G44A U47C G62A	< 1e-05			
